Results taken from patent publication US7220569.

How the values were obtained:
[1] = system: recombinant Factor X (rFX) from highly expressing CHO-rFX clones
[2] = system: Factor X analogue with the FXIa cleavage site Asp-Phe-Thr-Arg/Val (rFX^DFTR/V)
[3] = system: rFactor X from furin deficient CHO-FD11 cells (CHO-FD11-rFX)
rFactor X from furin deficient CHO-FD11 cells (CHO-FD11-rFX), sequence (chain, as listed by the source): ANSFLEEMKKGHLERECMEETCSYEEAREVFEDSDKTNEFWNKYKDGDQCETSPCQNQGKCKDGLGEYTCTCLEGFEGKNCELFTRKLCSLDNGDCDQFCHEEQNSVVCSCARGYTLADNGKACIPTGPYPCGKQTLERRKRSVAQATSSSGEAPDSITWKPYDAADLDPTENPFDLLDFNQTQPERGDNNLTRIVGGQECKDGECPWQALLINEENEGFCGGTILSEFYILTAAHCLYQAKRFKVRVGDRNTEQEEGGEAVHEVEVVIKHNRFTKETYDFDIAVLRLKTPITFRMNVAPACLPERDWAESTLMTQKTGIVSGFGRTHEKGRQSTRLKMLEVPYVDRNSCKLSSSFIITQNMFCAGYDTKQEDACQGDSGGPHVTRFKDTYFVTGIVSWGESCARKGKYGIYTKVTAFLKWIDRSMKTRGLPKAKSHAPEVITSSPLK

recombinant Factor X (rFX) from highly expressing CHO-rFX clones, sequence (chain, as listed by the source): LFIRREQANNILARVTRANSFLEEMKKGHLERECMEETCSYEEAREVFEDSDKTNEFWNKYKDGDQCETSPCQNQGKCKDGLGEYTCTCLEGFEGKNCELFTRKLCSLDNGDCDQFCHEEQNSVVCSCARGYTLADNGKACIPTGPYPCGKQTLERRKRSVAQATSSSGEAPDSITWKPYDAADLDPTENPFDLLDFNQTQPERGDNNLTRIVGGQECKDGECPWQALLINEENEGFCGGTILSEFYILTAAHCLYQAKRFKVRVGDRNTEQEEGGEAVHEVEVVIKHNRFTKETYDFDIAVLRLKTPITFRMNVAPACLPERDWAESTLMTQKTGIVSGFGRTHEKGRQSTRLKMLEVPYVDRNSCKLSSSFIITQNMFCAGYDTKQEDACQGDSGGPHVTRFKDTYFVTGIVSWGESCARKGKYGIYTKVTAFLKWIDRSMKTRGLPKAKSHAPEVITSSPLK
Factor X analogue with the FXIa cleavage site Asp-Phe-Thr-Arg/Val (rFX^DFTR/V), sequence (chain, as listed by the source, chain 1 of 2): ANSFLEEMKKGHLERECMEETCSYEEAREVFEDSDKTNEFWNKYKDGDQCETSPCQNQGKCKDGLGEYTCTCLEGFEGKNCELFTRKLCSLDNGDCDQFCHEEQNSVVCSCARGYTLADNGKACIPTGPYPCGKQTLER
Factor X analogue with the FXIa cleavage site Asp-Phe-Thr-Arg/Val (rFX^DFTR/V), sequence (chain, as listed by the source, chain 2 of 2): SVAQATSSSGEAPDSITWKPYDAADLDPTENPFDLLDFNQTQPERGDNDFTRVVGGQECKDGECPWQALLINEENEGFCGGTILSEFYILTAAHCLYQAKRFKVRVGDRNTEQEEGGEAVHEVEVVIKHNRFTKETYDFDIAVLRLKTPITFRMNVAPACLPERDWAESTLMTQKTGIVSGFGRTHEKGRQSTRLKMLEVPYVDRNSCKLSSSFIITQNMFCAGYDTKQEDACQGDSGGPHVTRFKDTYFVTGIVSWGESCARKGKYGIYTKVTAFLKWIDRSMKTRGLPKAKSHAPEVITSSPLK

endogenous furin of CHO cells
processing of rFactor X precursor in furin containing versus furin deficient CHO clones (Western blot) [1]: rFactor X precursor is not processed in the furin deficient cells and only single chain Factor X precursor is present (FIG. 6); in contrast, rFactor X is completely processed by "normal" cells at modest expression

purified plasma FXIa
activation of rFX^DFTR/V to the 35 kD and 31 kD forms (Western blot) [2]: protein bands of 35 kD and 31 kD rapidly appear after the addition of purified FXIa, but prior to the actual incubation of the cell sulture supernatant (FIG. 11, lane 3)

rfurin deltaTM6xHis (CHO-rfurin cell culture supernatant)
N-termini of processing products after 12 hours at 37 C with CHO-rfurin supernatant (Edman analysis) [3]: After incubation of rFX from CHO cells (c) and CHO-FD11 cells (e) in the presence of furin, only light and heavy chains having correct N-termini are found | N-termini of processing products after 12 hours at 37 C with CHO-rfurin supernatant (Edman analysis) [1]: After incubation of rFX from CHO cells (c) and CHO-FD11 cells (e) in the presence of furin, only light and heavy chains having correct N-termini are found | activity (mU), FX Coatest after RVV activation, incubation 0 days [1]: 853 mU | activity (mU), FX Coatest after RVV activation, incubation 1 day [1]: 1020 mU | activity (mU), FX Coatest after RVV activation, incubation 2 days [1]: 1100 mU | activity (mU), FX Coatest after RVV activation, incubation 3 days [1]: 1140 mU | activity (mU), FX Coatest after RVV activation, incubation 4 days [1]: 1200 mU | functional portion of rFX (%), incubation 0 days [1]: 61% | functional portion of rFX (%), incubation 1 day [1]: 73% | functional portion of rFX (%), incubation 2 days [1]: 79% | functional portion of rFX (%), incubation 3 days [1]: 81% | functional portion of rFX (%), incubation 4 days [1]: 86% | processing of pro-Factor X on tentacle gel immobilized rfurin derivative (Western blot of the effluent) [1]: Processing of pro-Factor X to double chain Factor X was detected in the effluent of the column | processing of single chain and propeptide containing rFX (Western blot) [1]: almost complete processing already after 2 hours of incubation at 37 °C
